B1: TNXB (parent)
chain: LLQRELMVPGTRHSAVLRDLRSGT
B2: SNAP91 (parent)
chain: FAQPMMRPPFGAAAVPGTQLSPSP

Variants of: B1
Assay: protein stability index of a GFP-peptide fusion (GPS, HEK-293T) (PSI 1-6); higher = more stable
Conditions: c terminus: a fixed tail appended
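Note: lentivirally expressed fusions sorted by FACS into six bins by GFP to DsRed ratio, PSI derived from sequencing read proportions per bin multiplied by bin number.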

Protein stability index of substitutions, site by site:
L1: C 2.38, F 2.41, Q 3.22, S 3.2, W 1.61, Y 2.3, P 2.53, K 2.87, A 2.85, G 2.89, D 2.71
M7: P 3.11, S 3.42, C 2.54, H 2.35, Y 3.15, Q 2.23, D 3.17
A15: K 2.82, Y 1.62
L6: C 2.59, W 2.52, Q 2.69, K 2.79, P 3.15, D 3.37, R 2.59, Y 2.63
E5: F 1.18, W 2.84, G 2.03, T 1.77, P 2.44, C 1.67, D 2.81
S14: P 2.32, D 2.66, E 2.54, W 2.11
R4: M 2.37, A 2.19, W 1.49, N 2.86, F 1.72, E 2.65
V16: P 2.82, Y 3.05, I 2.11, L 2.33, W 2.06, C 2.02, K 2.48, T 2.7, N 3, E 2.72
H13: M 2.25, D 3.23, C 2.1, L 2.01
T24: Y 2.64, V 2.29, Q 2.49, N 2.37, L 2, D 2.5, E 1.83
L20: R 2.86, C 2.85, N 3.53, M 2.25, V 2.63, A 2.97, I 2.52, T 2.66, W 2.3, E 3.37
D19: V 1.71, Q 2.29, M 2.39, N 2.06, A 2.27, K 2.07
Q3: G 2.74, D 3.4, L 1.73, A 2.27, N 2.38, S 2.61
G10: F 2.33, P 2.54, Y 1.09, N 2.75, D 2.85, C 1.43, K 2, H 2.19
G23: P 2.14, K 2.92, Q 3.73, I 2.35, Y 2.14, H 2.31
R18: V 2.51, N 2.71, T 2.43, K 2.39, S 2.61, I 2.21
S22: A 2.32, V 1.82, N 2.09, F 1.58, W 1.71, I 2.5, Y 2.18, K 2.77
V8: D 2.91, E 2.62, Q 2.22, G 2.27, C 2.12, Y 2.32, R 2.12, F 2.28, T 2.36, M 2.15, W 2.34
L2: C 2.13, Y 2.71, Q 3.54, H 3.43, S 3.4, R 3.92, T 3.29
R21: E 2.58, T 2.18, P 2.85, A 2.73, C 2.06, Y 2.12, D 2.69
R12: D 3.01, L 2.07, C 1.94, I 2.47, H 2.4, V 2.26
T11: H 2.68, D 2.81, Q 2.88, V 2.24, Y 1.94, R 2.13, S 2.5
P9: D 2.69, F 1.79, V 2.38, G 2.3, H 2.23, T 2.03, R 2.21
L17: Q 3.32, S 3.16, V 2.85, W 2.38, D 2.62, I 2.81, K 3.75, F 2.23, M 3.05

Variants of: B2
Assay: as above
Conditions: c terminus: a fixed tail appended

Protein stability index: each site, then its substitutions
P16: Y 2.15, N 3.2, M 2.69, Q 3.19, T 3.37, L 2.74, H 2.71, K 3.25, R 3.36, F 2.53, W 1.78, G 2.81, I 2.22, S 3.02, V 3.33
Q19: K 2.41, N 3.17, W 2.4, E 2.72, H 3.08, S 2.84, Y 2.69, T 2.87, R 3, I 2.87, F 2.64, A 2.98, M 2.89, L 2.5, G 2.96, C 2.57, D 3.22, V 2.96
P22: I 2.75, H 3.14, G 3.56, D 2.97, Y 3.49, Q 3.57, V 3.08, S 2.96, F 2.82, N 3.58, L 3.22, C 2.67, A 3.28, E 2.71, M 2.86, T 3.3, W 2.65, K 3, R 3.32
P24: F 2.65, S 3.1, V 2.51, D 3.4, N 2.58, T 3.25, L 2.35, E 3.45, K 3.83, A 3.11, R 2.87, Q 3.32, H 2.96, C 2.93, Y 2.86, I 3.2, G 3.22, M 3.23, W 2.77
G17: N 3.44, L 3.46, M 2.84, Y 2.74, E 2.71, D 3.04, W 2.49, Q 3.48, A 3.11, C 2.71, I 2.88, S 2.81, K 3.17, R 3.89, V 2.85, F 2.69, H 3.22, T 3.24
T18: K 2.75, R 3.41, F 2.89, L 2.95, V 2.76, S 3.02, A 3.1, C 2.92, I 2.84, H 2.82, E 2.6, Y 2.58, W 2.29, D 2.6, N 2.87, G 2.72, P 3.14, Q 3.15, M 2.95
L20: T 3.56, V 2.85, K 3.29, M 2.92, W 2.73, I 3.02, E 2.94, F 2.71, Q 4.04, R 3.51, S 3.33, C 3.7, D 2.98, G 3.6, P 3.2, H 3.43, Y 3.08, N 3.26, A 3.28
S21: I 3.48, T 3.06, E 2.98, N 3.03, D 2.63, A 3.49, C 2.86, G 3.28, H 3.16, M 2.85, L 2.76, F 3.01, V 3.44, K 2.95, Y 3, W 2.89, P 3.11, R 3.12, Q 3.29
S23: F 2.75, W 2.03, K 3.21, R 4.14, M 2.36, Y 2.52, D 3.54, A 3.4, H 2.96, N 3.29, G 3.05, Q 3, L 2.1, C 3.25, E 3.32, T 3.27, V 3.19, I 2.73

— the supplement of paper PMC10567573
